Consider one molecule from publication PMC10123652, “An Antibody Targeting Fibroblast Activation Protein Simultaneously Fused to Interleukin-2 and Tumor Necrosis Factor Selectively Localizes to Neoplastic Lesions” (Antibodies, 2023).

Broadly, the Kd is the equilibrium constant for the complex coming apart. One may read the stoichiometry N as a count of units in the complex or per binding partner.

Assay [1] deals with T1, recombinant human fibroblast activation protein (FAP) (Homo sapiens, UniProt Q12884).
T1 construct: also called human FAP antigen; hFAP
The experiment in a line: ELISA; plate coated with 0.1 µM human FAP overnight at 4 °C in 50 mM HEPES, 100 mM NaCl, pH 7.4; serial dilutions of IL2-7NP2-TNF^mut in 2% milk-PBS, 4 h at RT; detection with Protein A-HRP; triplicate. The note with it: both partners purified.

The next assay addresses IL2-7NP2-TNF^mut (human). As to the kind of experiment: SEC; Superdex 200 Increase 10/300 GL; purified protein dialyzed against PBS pH 7.4; IgG (150 kDa) and SIP (80 kDa) as controls. (In general: SEC sorts molecules by how far they enter the pores of the column.)

T1 sequence (Q12884 whole entry): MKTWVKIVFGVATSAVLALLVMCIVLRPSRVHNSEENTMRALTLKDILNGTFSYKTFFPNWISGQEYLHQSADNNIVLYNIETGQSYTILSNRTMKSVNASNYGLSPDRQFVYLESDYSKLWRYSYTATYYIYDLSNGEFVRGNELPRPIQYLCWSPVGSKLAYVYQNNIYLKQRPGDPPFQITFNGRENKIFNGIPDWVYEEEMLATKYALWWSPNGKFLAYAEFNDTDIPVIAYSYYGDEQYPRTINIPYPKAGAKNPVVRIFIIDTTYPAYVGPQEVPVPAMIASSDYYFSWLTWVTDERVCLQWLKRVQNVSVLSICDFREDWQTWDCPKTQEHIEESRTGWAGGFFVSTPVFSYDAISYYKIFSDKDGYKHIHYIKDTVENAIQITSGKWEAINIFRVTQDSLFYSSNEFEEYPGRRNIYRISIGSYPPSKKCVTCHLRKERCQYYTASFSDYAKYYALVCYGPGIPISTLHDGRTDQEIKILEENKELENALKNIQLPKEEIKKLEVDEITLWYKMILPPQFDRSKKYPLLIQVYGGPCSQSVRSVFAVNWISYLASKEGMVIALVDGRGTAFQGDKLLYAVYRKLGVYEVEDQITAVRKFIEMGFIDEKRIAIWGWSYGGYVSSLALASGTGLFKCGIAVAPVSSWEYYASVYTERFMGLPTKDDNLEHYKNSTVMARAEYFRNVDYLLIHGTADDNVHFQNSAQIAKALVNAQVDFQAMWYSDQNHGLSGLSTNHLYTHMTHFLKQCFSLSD

B1: IL2-7NP2-TNF^mut (other, human)
VH: EVQLLESGGGLVQPGGSLRLSCAASGFTFSSYAMSWVRQAPGKGLEWVSAIGSVGGPTYYADSVKGRFTISRDNSKNTLYLQMNSLRAEDTAVYYCAKRLAWFDYWGQGTLVTVSS
VL: EIVLTQSPGTLSLSPGERATLSCRASQSVSSSYLAWYQQKPGQAPRLLIYGASSRATGIPDRFSGSGSGTDFTLTISRLEPEDFAVYYCQQSGKGPLTFGQGTKVEIK
notes: wild-type human interleukin-2 (IL2), N-terminal moiety of the fusion; mutated version of human TNF (TNFα); Non-covalent homotrimer; also called dual-cytokine antibody fusion protein
In the case of B1, in assay [1], the Kd was approximately 0.1 nM. This molecule also yielded a stoichiometry N with IL2-7NP2-TNF^mut (human) of 3.
